# In patent publication US10654918B2, “Inflammatory disease diagnosis and methods of treatment using down-regulators of lipopolysaccharide-responsive beige-like anchor” (University of South Florida, priority 2013, dated 2020):
# B1: LRBA shRNA: shRNA plasmid against LRBA; targeted LRBA sequence SEQ ID No. 15 GGGATATTGTAGAAACTGTCTTT (nucleic acid)
# sense: GGGATATTGTAGAAACTGTCTTTTTCAAGAGAAAAGACAGTTTCTACAATATCCCTTTTTT
# antisense: CCCTATAACATCTTTGACAGAAAAAGTTCTCTTTTCTGTCAAAGATGTTATAGGGAAAAAA
# Tests used:
# Assay type in all cases: cell-based, human
# [1] = system: MAPKs [p42/44, p38 and Jun N-terminal kinase (JNK)]; assay: MAPK Western blot in Raji and Raji9 cells; conditions: LRBA KD Raji cells, LPS
# Method: FIGS. 47(A) and (B). Knockdown of LRBA deregulates MAPKs. Knockdown of LRBA upregulates p38 and JNK but downregulates p42/44. Half million of Raji or Raji9 cells were put in a well in a 6 well plate. After 24 hr, cells were treated with or without LPS for the time as indicated. 200 μl RIPA buffer with protease inhibitors and PMSF. (A) Western blot of cells was performed. 30 μl of cell extracts were loaded to ach well. Phosphorylated protein levels were normalized to β-Actin shown as the numbers between the two blots. (B) curves based on the Western blots. Quantity One software was used to quantify the levels.
# Like NF-κB, the mitogen-activated protein kinases (MAPKs) act as funnels to collect many stress-activated signals but function as bottle necks to filter and process these signals, and then have many diverse targets(26). Specifically, MAPKs are critical downstream hubs of the TLR4/LPS signal transduction(27) and may be affected by LRBA deficiency. The expression and activation of the three major MAPKs [p42/44, p38 and Jun N-terminal kinase (JNK)] were examined in Raji cells. […] The phospho-p42/44 measured by flow cytometry intracellular staining also is decreased (data not shown). […] The Drosophila MAPK and JNK have 82% and 78% identities with their human orthologues, respectively.
# LRBA = assay: Knockdown of LRBA in Raji B cell lines stably transfected with LRBA shRNA; conditions: three Raji B cell lines stably transfected
# Method: Three Raji B cell lines stablely transfected with LRBA shRNA that knockdown LRBA over 90% were generated, along with […] mouse cell lines stably transfected with a LRBA DNM.
# LRBA was tested for its effect on cell growth. For the “loss of function” strategy, EBV immotalized LRBA-deficient B cell lines were generated from LRBA deficient patients, and dominant negative LRBA mutants (DNM) and knockout mouse models. The LRBA sequence targeted by the shRNA used was SEQ ID No. 15;
# Raji and Raji9 cells = assay: Annexin V apoptosis assay after infection with adenoviruses or Gram-negative bacteria; conditions: 24 hrs after infection with adenoviruses or Gram-negative bacteria
# Method: FIGS. 49(A) through (B) are graphs showing cells with LRBA knockdown cannot fight viral and bacterial infections efficiently. Half million of Raji and Raji9 cells were infected with adenoviruses at 100 multiplicity of infection (MOI) or 50 μl of Gram-negative bacteria from overnight culture. After 24 hours of incubation at 37° C., Apoptosis was detected by Annexin V-PE and 7-AAD. Cells that were double negative (left lower quadrant) were viable, Annexin only positive cells (right lower quadrant) were early phase of apoptosis or other cell death, and double positive cells (right upper quadrant) were end stage apoptosis or dead. ****p<9E-05, *p<0.007.
# In order for pathogens to efficiently spread to neighboring cells and evade the immune cells, and/or gain nutrients, one prominent strategy of many bacterial pathogens is to cause host cell death (31). On another hand, the host cell, first will try to kill the evaded pathogens. As such, cell death may be used as a hallmark of immunodeficiency. […] It is hypothesized that Raji cells with LRBA knockdown can serve as an immunodeficiency in vitro model, i.e. they cannot fight pathogens efficiently when compared to wild type cells, manifested as more cell death.
# Raji cells = assay: Cell surface CVID and TLR4 receptors on LRBA WT and LRBA KD Raji cells (flow cytometry)
# Text: LRBA is an important vesicle trafficking regulator (Wang, et al., Identification of a novel lipopolysaccharide-inducible gene with key features of both A kinase anchor proteins and chs1/beige proteins. 2001. J Immunol 166: 4586-4595; Cullinane, et al., The BEACH Is Hot: A LYST of Emerging Roles for BEACH-Domain Containing Proteins in Human Disease. 2013. Traffic) and may function as a master regulator of multiple CVID receptors. To test this, LRBA WT and LRBA KD Raji cells were stimulated with LPS, and the cell surface levels of CVID receptors and TLR4 were analyzed by flow cytometry. BD FACSelect Multicolor Panel Designer was used to search antibodies and build up the panel for multiple color cytometry for LSRII FACS machine. Fluorophores directly conjugated antibodies against cell surface CVID proteins were used: CD19-PerCP-Cy5.5, CD2O-PE-Cy7, CD21-V450, BAFFR-PE, TACI-APC, and CD81-APC-H7. Two panels were used when use live/dead discrimination with DAPI […] or 7AAD (overlap with V450). The standard staining procedures were followed and 20,000 to half million cells were acquired. Data acquisition was performed using FACS LSRII flow cytometers and analyzed using FACSDiva version 6.1.2.
# [2] = Raji cell surface, LPS stimulated, Knockdown
molecule,measurement,setting,value
B1,JNK kinase activity,[1],increased
same,p38 kinase activity,[1],increased
same,p42/44 kinase activity,[1],reduced
same,knockdown of LRBA,LRBA,over 90%
same,"dead cells or apoptotic cells (Annexin V-PE, 7-AAD)",Raji and Raji9 cells,more dead cells or apoptotic cells
same,BAFFR Median Intensity,Raji cells; [2],4198.00 ± 496.75 arbitrary fluorescence intensity units
same,BAFFR Percentage,Raji cells; [2],90.83 ± 0.93%
same,CD19 Median Intensity,Raji cells; [2],5830.17 ± 159.95 arbitrary fluorescence intensity units
same,CD19 Percentage,Raji cells; [2],98.57 ± 0.28%
same,CD20 Median Intensity,Raji cells; [2],29541.25 ± 332.06 arbitrary fluorescence intensity units
same,CD20 Percentage,Raji cells; [2],99.18 ± 0.04%
same,CD21 Median Intensity,Raji cells; [2],1659.50 ± 72.48 arbitrary fluorescence intensity units
same,CD21 Percentage,Raji cells; [2],55.08 ± 5.00%
same,TACI Median Intensity,Raji cells; [2],1813.50 ± 412.89 arbitrary fluorescence intensity units
same,TACI Percentage,Raji cells; [2],7.38 ± 1.49%
same,TLR4 Median Intensity,Raji cells; [2],11204.60 ± 2171.10 arbitrary fluorescence intensity units
same,TLR4 Percentage,Raji cells; [2],31.27 ± 11.42%
same,BAFFR Median Intensity fold,Raji cells; Wild type vs Knockdown,0.81↑
same,BAFFR Percentage fold,Raji cells; Wild type vs Knockdown,0.96↑
same,CD19 Median Intensity fold,Raji cells; Wild type vs Knockdown,1.23↓
same,CD19 Percentage fold,Raji cells; Wild type vs Knockdown,1.00
same,CD20 Median Intensity fold,Raji cells; Wild type vs Knockdown,1.21↓
same,CD20 Percentage fold,Raji cells; Wild type vs Knockdown,1.00
same,CD21 Median Intensity fold,Raji cells; Wild type vs Knockdown,0.96↑
same,CD21 Percentage fold,Raji cells; Wild type vs Knockdown,0.49↑
same,TACI Median Intensity fold,Raji cells; Wild type vs Knockdown,1.33↓
same,TACI Percentage fold,Raji cells; Wild type vs Knockdown,4.07↓
same,TLR4 Median Intensity fold,Raji cells; Wild type vs Knockdown,1.04
same,TLR4 Percentage fold,Raji cells; Wild type vs Knockdown,1.82↓
